Numbering of substitutions follows the chain as printed.
B1: mab038xhIgG1TM (clone 69C9E12), mouse-human chimeric anti-CD73 antibody (antibody, V domains shown)
VH: QVQLQQPGTELVNPGASVKLSCKASGYTFTSYWMHWVKQRPGQGLEWIGNINPSNGGTHYNEKFNNKATLTVDKSSSTAYMQLSSLTSEDSAVFYCARGDYAYDWYFTVWGTGTTVTVSS
VL: DIVLTQSPASLAVSLGQRAIISCKASQSVSFAGTGLMHWYQQKPGQQPKLLIYRVSNLEAGIPTRFSGSGSRTDFTLNIHPVEEDDAATYYCQQNREFPWTFGGGTKLEIK
notes: also called mAb038 chimeric antibody
B2: mab041xhIgG1TM (clone 71E10B3), mouse-human chimeric anti-CD73 antibody (antibody, V domains shown)
VH: QVQLQQPGTELVKPGASVKLSCKASGYTFTSYWMHWVKQRPGQGLEWIGNINPSNGGTNYNQKFKSKATLTVDKSSNTASMQLSSLTSEDSAVYYCARGDYGYDWYLDVWGTGTTVTVSS
VL: B1 VL with T34P, G35S, V55T, I62V, R72G
notes: also called mAb041 chimeric antibody
B3: mab042xhIgG1TM (clone 77B9A3), mouse-human chimeric anti-CD73 antibody (antibody, V domains shown)
VH: QVQLQQSGAGLVKPGASVKLSCKASGYTFTNYWMHWVKQRPGQGLEWIGMIHPNSGSTNNNEKFKNKATLTVDKSSNTAYMQLSSLTSEDSAVYYCARFFFGGYPHYYALDYWGQGTSVTVSS
VL: DIVMTQSQKFMSTTVGDRVSITCKASQNVGTAVAWYQQKPGQSPKLLIYSASDRYTGVPDRLTGSGSGTDFTLTISNVQSEDLADYFCQQYSSFPLFTFGSGTKLVIQ
notes: also called mAb042 chimeric antibody
B4: mab044xhIgG1TM (clone 80H7D6), mouse-human chimeric anti-CD73 antibody (antibody, V domains shown)
VH: EVKLVESGGGLVQPGGSLRLSCAASGFTFTDYYMSWVRQPPGKALEWLGFIRNKADGSTTEYSASVKGRFTISRDNSQSILYLQMNALRPEDSATYYCTRSPIYFDNWYFDVWGTGTTVTVSS
VL: DIVMSQSPSSLAVSVGEKVTMTCKSSQSLLYSNNQKNYLAWYQQKPGQSPKLLIYWASTRESGVPDRFTGSGSGTDFTLTLSSVKAEDLAVYYCQQYYSYPFTFGSGTKLEIK
notes: also called mAb044 chimeric antibody
B5: mab065xhIgG1TM (clone 125A4E10), mouse-human chimeric anti-CD73 antibody (antibody, V domains shown)
VH: EVQLQQSGPELVKPGASVKISCKASGYTFTDYYMNWVKQSHGKSLEWIGNINPNNGDTNYNQKFKGKATLTVDKSSSTASMELRSLTSEDSAVYYCANSGYYYFDYWGQGTTLTVSS
VL: DIVMTQSPSSLTVTAGEKVTMSCKSSQSLLNSGNQKNYLTWYQQKPGQPPKVLIYWASTRESGVPDRFTGSGSGTDFTLTISSVQAEDLAVYYCQNDYSYPPTFGGGTNLEIK
notes: also called mAb065 chimeric antibody

What was measured:
[1] = biological target: T1, human CD73 (full length, on transfected CHOK1 cells) (human, UniProt P21589 27-549); assay: cell-based or functional assay
T1 sequence (looked up): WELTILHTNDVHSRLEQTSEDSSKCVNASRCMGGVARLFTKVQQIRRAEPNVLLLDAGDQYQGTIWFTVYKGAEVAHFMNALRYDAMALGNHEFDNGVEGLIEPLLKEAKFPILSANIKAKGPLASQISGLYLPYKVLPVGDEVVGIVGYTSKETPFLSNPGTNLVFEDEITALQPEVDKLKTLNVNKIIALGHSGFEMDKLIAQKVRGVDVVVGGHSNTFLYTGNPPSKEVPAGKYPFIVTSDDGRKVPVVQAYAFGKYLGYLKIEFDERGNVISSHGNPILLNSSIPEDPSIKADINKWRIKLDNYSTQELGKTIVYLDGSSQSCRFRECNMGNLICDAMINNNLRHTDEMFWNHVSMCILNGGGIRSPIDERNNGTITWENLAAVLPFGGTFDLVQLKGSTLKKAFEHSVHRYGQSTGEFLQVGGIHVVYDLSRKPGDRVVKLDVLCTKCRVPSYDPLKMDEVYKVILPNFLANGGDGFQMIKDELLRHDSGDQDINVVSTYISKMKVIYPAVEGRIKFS

[2] = biological target: T1, human CD73 (full length, on transfected …); assay: FACS on CHOK1-hCD73 cells
[3] = biological target: T2, cynomolgus monkey CD73 (on transfected CHOK1 cells) (cynomolgus monkey, UniProt A0A2K5V5U7 27-549); assay: FACS on CHOK1-cCD73 cells
T2 construct: whole, on cells; also called CHOK1-cCD73; CHOK1-CCD73
T2 sequence: T1 sequence (looked up) with M199T, T350A, V466I

[4] = biological target: T3, murine CD73 (on transfected CHOK1 cells) (mouse, UniProt Q61503 29-551); assay: FACS on CHOK1-mCD73 cells
T3 construct: whole, on cells; also called CHOK1-mCD73; mCD73
T3 sequence (looked up): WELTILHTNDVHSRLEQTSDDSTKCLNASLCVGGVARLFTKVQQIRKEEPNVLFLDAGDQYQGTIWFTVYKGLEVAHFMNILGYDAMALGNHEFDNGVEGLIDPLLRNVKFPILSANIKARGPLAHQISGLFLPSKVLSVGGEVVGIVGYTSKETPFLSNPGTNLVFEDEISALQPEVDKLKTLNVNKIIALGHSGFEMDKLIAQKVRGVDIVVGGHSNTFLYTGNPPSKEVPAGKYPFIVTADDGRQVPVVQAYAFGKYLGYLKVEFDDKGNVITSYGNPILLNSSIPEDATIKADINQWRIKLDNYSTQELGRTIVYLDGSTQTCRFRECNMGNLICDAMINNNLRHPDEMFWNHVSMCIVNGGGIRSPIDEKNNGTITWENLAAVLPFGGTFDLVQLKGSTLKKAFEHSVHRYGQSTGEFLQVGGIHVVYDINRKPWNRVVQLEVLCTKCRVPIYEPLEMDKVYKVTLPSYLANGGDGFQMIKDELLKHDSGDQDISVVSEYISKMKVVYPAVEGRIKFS

[5] = biological target: T4, His-tagged CD73 extracellular domain protein (hCD73 ECD-His) (human, UniProt P21589 27-547); assay: Octet BLI, antibody on AHC sensor, antigen 50-200 nM, 1:1 fit
T4 construct: Expressed in CHO cells from pTT5-hCD73 ECD-His6, purified on nickel column; also called hCD73 ECD-His6; human CD73 ECD
T4 sequence: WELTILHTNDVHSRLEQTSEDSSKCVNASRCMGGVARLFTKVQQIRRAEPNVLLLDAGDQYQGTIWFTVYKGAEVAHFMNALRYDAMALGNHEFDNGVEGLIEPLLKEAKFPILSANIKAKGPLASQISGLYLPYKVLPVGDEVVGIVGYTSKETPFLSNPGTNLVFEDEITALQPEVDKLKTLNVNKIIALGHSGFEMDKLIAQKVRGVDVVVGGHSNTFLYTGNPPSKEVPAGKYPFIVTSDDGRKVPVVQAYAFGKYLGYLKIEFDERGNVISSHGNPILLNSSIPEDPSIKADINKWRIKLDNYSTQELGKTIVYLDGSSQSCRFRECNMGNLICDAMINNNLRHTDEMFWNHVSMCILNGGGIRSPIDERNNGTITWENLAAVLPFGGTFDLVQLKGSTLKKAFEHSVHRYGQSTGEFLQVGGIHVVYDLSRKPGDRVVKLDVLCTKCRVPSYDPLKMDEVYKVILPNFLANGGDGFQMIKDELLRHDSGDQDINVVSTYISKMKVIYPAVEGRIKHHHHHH
Excerpt: Octet Red 96 was selected as the test instrument, and AHC biosensor was selected as the test sensor in this experiment. Anti-human IgG Fc antibody has been immobilized on the AHC sensor, which can be used to directly capture the 15 antibodies in this experiment. Then the sensor was immersed in the analysis sample (antigen). There were five steps in this experiment: 1, Baseline (120 s) 2, Loading (capture antibody) (300 s) 3, Baseline (120 s) 4, Association (binding antigen) (180 s) 5, Dissociation (antigen dissociation) (1200 s). After the test was completed, the regeneration buffer (Glycine PH1.5) and the neutralization buffer (1*PBS buffer) were alternately immersed for 5 seconds, and the sensor was regenerated by a total of five cycles. The maximum number of sensor regeneration times is 10. The running buffer in this experiment is the sample diluent (1*PBS buffer containing 0.02% Tween20 and 0.1% BSA), that is, the buffer used in the Baseline step, the Dissociation step, and the blank analyte sample. Four sensors are used at one running in this experiment.
Sample treatment: all the antibodies were diluted to the working concentration of 10 ug/ml with sample diluent (1*PBS buffer containing 0.02% Tween20 and 0.1% BSA), and the analyte samples (antigens) were diluted to three working concentrations: 200 nM, 100 nM and 50 nM.
For data analysis, Octet Data Analysis (version 7.0) was used to calculate the response signal value (the signal of the coupled analyte sample minus the signal of the blank analyte sample), and a 1:1 binding model was used to fit the data.

Binder | Inhibition assay of enzyme activity, IC50 [1] [nM] | Inhibition assay of enzyme activity, MAX % inhibition [1] [%] | EC50 [2] [nM] | MAX MFI fold [2] [fold] | EC50 [3] [nM] | MAX MFI fold [3] [fold] | binding result [4] | Kd [5] [nM] | koff [5] [s⁻¹] | kon [5] [M⁻¹ s⁻¹]
B1 | 0.8 | 52.4 | 1.8 | 120 | 2.3 | 167 | no binding | 0.124 | 2.97e-05 | 240000
B2 | 0.7 | 54.4 | 1.3 | 127 | 2 | 167 | no binding | 0.298 | 4.41e-05 | 148000
B3 | 0.5 | 66.3 | 2.3 | 136 | 5.9 | 132 | no binding | 0.0592 | 2.73e-05 | 461000
B4 | 0.1 | 49.1 | > 10 | > 150 | 7.6 | 174 | no binding | 0.086 | 3.29e-05 | 383000
B5 | 0.1 | 54.7 | 1.2 | 160 | 3.6 | 173 | no binding | 0.112 | 4.86e-05 | 434000

Source: patent US20220098319A1 (SHANGHAI PHARMAEXPLORER, published 2022)
